In patent US20170073659:

Target: GFP-KRS

B1: caspase-8 (protein)
chain: MDFSRNLYDIGEQLDSEDLASLKFLSLDYIPQRKQEPIKDALMLFQRLQEKRMLEESNLSFLKELLFRINRLDLLITYLNTRKEEMERELQTPGRAQISAYRVMLYQISEEVSRSELRSFKFLLQEEISKCKLDDDMNLLDIFIEMEKRVILGEGKLDILKRVCAQINKSLLKIINDYEEFSKERSSSLEGSPDEFSNGEELCGVMTISDSPREQDSESQTLDKVYQMKSKPRGYCLIINNHNFAKAREKVPKLHSIRDRNGTHLDAGALTTTFEELHFEIKPHDDCTVEQIYEILKIYQLMDHSNMDCFICCILSHGDKGIIYGTDGQEAPIYELTSQFTGLKCPSLAGKPKVFFIQACQGDNYQKGIPVETDSEEQPYLEMDLSSPQTRYIPDEADFLLGMATVNNCVSYRNPAEGTWYIQSLCQSLRERCPRGDDILTILTEVNYEVSNKDDKKNMGKQMPQPTFTLRKKLVFPSD
amount of KRS cleaved after caspase-8 overexpression (western blot with anti-GFP antibody): the amount of KRS cleaved was increased with the increasing amount of caspase-8
